The record followed here is US20100047232A1 (Genentech, published 2010).

First the molecules themselves.
T1: Nogo Receptor (hit from the human cDNA library) (human, UniProt Q9BZR6 27-447)
T1 construct: whole, on cells; also called NgR; NgR1
T1 sequence (looked up): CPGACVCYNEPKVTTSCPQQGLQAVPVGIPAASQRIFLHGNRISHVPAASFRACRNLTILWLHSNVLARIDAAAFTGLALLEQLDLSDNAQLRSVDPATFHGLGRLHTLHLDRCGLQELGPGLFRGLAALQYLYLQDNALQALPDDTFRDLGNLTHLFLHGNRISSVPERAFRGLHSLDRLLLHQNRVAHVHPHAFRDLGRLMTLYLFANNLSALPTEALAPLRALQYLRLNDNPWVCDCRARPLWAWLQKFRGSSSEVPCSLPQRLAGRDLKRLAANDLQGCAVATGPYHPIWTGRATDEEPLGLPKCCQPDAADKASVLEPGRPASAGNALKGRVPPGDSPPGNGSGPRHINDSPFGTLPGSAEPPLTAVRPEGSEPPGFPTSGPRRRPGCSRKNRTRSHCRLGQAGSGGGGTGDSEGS

B1: LILRB2, transcript variant 1 (leukocyte immunoglobulin-like receptor, subfamily B, member 2) (receptor)
chain: QTGTIPKPTLWAEPDSVITQGSPVTLSCQGSLEAQEYRLYREKKSASWITRIRPELVKNGQFHIPSITWEHTGRYGCQYYSRARWSELSDPLVLVMTGAYPKPTLSAQPSPVVTSGGRVTLQCESQVAFGGFILCKEGEDEHPQCLNSQPHARGSSRAIFSVGPVSPNRRWSHRCYGYDLNSPYVWSSPSDLLELLVPGVSKKPSLSVQPGPVVAPGESLTLQCVSDVGYDRFVLYKEGERDLRQLPGRQPQAGLSQANFTLGPVSRSYGGQYRCYGAYNLSSEWSAPSDPLDILITGQIHGTPFISVQPGPTVASGENVTLLCQSWRQFHTFLLTKAGAADAPLRLRSIHEYPKYQAEFPMSPVTSAHAGTYRCYGSLNSDPYLLSHPSEPLELVVSGPSMGSSPPPTGPISTPAGPEDQPLTPTGSDPQSGLGRHLGVVIGILVAVVLLLLLLLLLFLILRHRRQGKHWTSTQRKADFQHPAGAVGPEPTDRGLQWRSSPAADAQEENLYAAVKDTQPEDGVEMDTRAAASEAPQDVTYAQLHSLTLRRKATEPPPSQEREPPAEPSIYATLAIH
notes: Expressed from full-length human cDNA in transfected COS7 cells; also called LIRB2; MIG10
B2: PirB (paired-immunoglobulin-like receptor B), mouse (receptor)
chain: SLPKPILRVQPDSVVSRWTKVTFFCEETIGANEYRLYKDGKLYKTVTKNKQKPANKAEFSLSNVDLRNAGQYRCSYSTQYKSSGYSDPLELVVTGDYWTPSLLAQASPVVTSGGYVTLQCESWHNDHKFILTVEGPQKLSWTQDSQYNYSTRKYHALFSVGPVTPNQRWICRCYSYDRNRPYVWSPPSESVELLVSGNLQKPTIKAEPGPVIASKRAMTIWCQGNLDAEVYFLHNEGSQKTQSTQTLQQPGNKGKFFIPSMTRQHAGQYRCYCYGSAGWSQPSDTLELVVTGIYEHYKPRLSVLPSPVVTAGGNMTLHCASDFHYDKFILTKEDKKFGNSLDTEHISSSRQYRALFIIGPTTPTHTGTFRCYGYFKNAPQLWSVPSDLQQILISGLSKKPSLLTHQGHILDPGMTLTLQCYSDINYDRFALHKVGGADIMQHSSQQTDTGFSVANFTLGYVSSSTGGQYRCYGAHNLSSEWSASSEPLDILITGQLPLTPSLSVKPNHTVHSGETVSLLCWSMDSVDTFILSKEGSAQQPLRLKSKSHDQQSQAEFSMSAVTSHLSGTYRCYGAQNSSFYLLSSASAPVELTVSGPIETSTPPPTMSMPLGGLHMYLKALIGVSVAFILFLFILIFILLRRRHRGKFRKDVQKEKDLQLSSGAEEPITRKGELQKRPNPAAATQEESLYASVEDMQTEDGVELNSWTPPEEDPQGETYAQVKPSRLRKAGHVSPSVMSREQLNTEYEQAEEGQGANNQAAESGESQDVTYAQLCSRTLRQGAAASPLSQAGEAPEEPSVYATLAAARPEAVPKDVEQ
notes: Expressed from cDNA in transfected COS7 cells; also called murine orthologue PirB
B3: AP-Nogo66 (ligand, human, UniProt Q9NQC3 1055-1120, looked up)
chain: RIYKGVIQAIQKSDEGHPFRAYLESEVAISEELVQKYSNSALGHVNCTIKELRRLFLVDDLVDSLK
notes: also called AO-Nogo66; not shown: FLAG tag at the N-terminus; human placental alkaline phosphatase (AP)

Experiment [1] has as its target B3. In words: expression cloning, AP-fusion bait (20-50 nM) on COS7 cells transfected with human cDNA pools. The source says: (§1) To identify novel receptors for inhibitory myelin proteins, an expression cloning approach was taken. As bait, constructs were generated that fused Alkaline Phosphatase (AP) to the N- and/or C-terminus of the following characterized myelin inhibitors (human cDNA used): Nogo66, two additional inhibitory domains of NogoA (NiRD2 and NiG20) (Oertle T, J. Neurosci. 2003, 23(13): 5393-406), MAG, and OMgp. These constructs were transfected into 293 cells to produce conditioned medium (in DMEM/2% FBS) containing the bait proteins. The cDNA library used in the screen was comprised of full-length human cDNA clones in expression-ready vectors generated by Origene. These cDNAs were compiled, arrayed, and pooled. Pools of approximately 100 cDNA's were transiently transfected into COS7 cells.
(§2) In particular, on Day 1, COS7 cells were plated at a density of 85,000 cells per well in 12-well plates. On Day 2, 1 mg of pooled cDNA's were transfected per well using the lipid-based transfection reagent FuGENE 6 (Roche). On Day 4, screening was performed. […] The cells were washed once in AP Buffer (100 mM NaCl, 5 mM MgCl₂, 100 mM Tris pH 9.5), and incubated in chromogenic substrate (Western Blue, Promega), and analyzed for presence of reaction product one hour after incubation, and again after overnight incubation. […]

Experiment [2] has as its target B3. In words: AP activity on transfected COS cells after incubation with AP-Nogo66. On the procedure: In particular, on Day 1, COS7 cells were plated at a density of 85,000 cells per well in 12-well plates. On Day 2, 1 mg of pooled cDNA's were transfected per well using the lipid-based transfection reagent FuGENE 6 (Roche). On Day 4, screening was performed. Briefly, culture medium was removed from cells and replaced with 0.5 ml of 293 cell-conditioned medium containing AP-fusion bait proteins (20-50 nM). Cells were incubated at room temperature for 90 minutes. The cells were then washed 3 times with phosphate-buffered saline (PBS), fixed for 7 minutes with 4% paraformaldehyde, washed 3 times in HEPES-buffered saline (HBS), and heat inactivated at 65° C. for 90 minutes to destroy endogenous AP activity. The cells were washed once in AP Buffer (100 mM NaCl, 5 mM MgCl₂, 100 mM Tris pH 9.5), and incubated in chromogenic substrate (Western Blue, Promega), and analyzed for presence of reaction product one hour after incubation, and again after overnight incubation. Positive cells were identified by the presence of dark blue precipitate over the surface of the membrane. Positive pools were further broken down to identify individual positive clones by subsequent rounds of screening.
To confirm Nogo66 binding to LILRB2 (SEQ ID NO: 2), and to test if Nogo66 binds to the murine orthologue PirB (SEQ ID NO: 1), binding assays similar to those described in Example 1 were carried out. […]

In experiment [3] the target is T1, Nogo Receptor (hit from the human cDNA …). In words: expression cloning, AP-fusion bait (20-50 nM) on COS7 cells transfected with human cDNA pools.
Description: as §1, §2

For B1, the binding result in experiment [1] is “binds”.
In the case of B2, in experiment [2], the binding result is given as “binds”.
For the molecule B3, the binding result in experiment [3] was “binds”.
